Laboratory results taken from the DeepSol protein solubility set.

Experiment: soluble on expression in E. coli; label from the status in PepcDB or PDB records

Row | Sequence | soluble on expression in E. coli
1 | AIANSLVRRSAQQLSLWRTYCIKHNASEAASPGRNAGRPNYEEFIGRHQRQAQCSIVVQVSSEKSYEELYNYCSSFGSIMGAHHYCVRQDETLHYILLEYATSDEAAAAIGAGVTNGELSGVPVRSPFLWFRAAGGGRRSPKLVANTAPALLSLDGTRQVDQRHLLGLLRGAADIEEQVQQLYEHTRLNELGIRMRFLAALQVQQAIAGMFPAAQAQPFGSSVNGFGRMGCDLDLILRFDSDMGAKIPLEAAVPSRLVYHTKENLSNGRSQTQRHMECFGDMLHLFLPGVCHVRRILQARVPIIKYHHEHLDLEVDLSMSNLTGFYMSELLYMFGEMDPRVRPLTFTIRRWAQTCGLTNPSPGRWISNFSLTCLVMFFLQQLRQPILPTIGALAKAAEPGDSRVTEDGINCTFTRNVDRLGFRSRNQSSLSELLLQFFEFYSQFDFHNRAISLNEGKPLSKPDHSAMYIVNPLEQLLNVSKNVSLEECERLRIEVRNAAWVLESEVENASVPEGDGQELSCGLLNLFKHPEKAVIRPNMFFKPRMVEVSDLFEQKEAGATSSSTPPTPAITYKSASVRQQVQSIKAATRSELKQLRGSGSSVPTSSPNNRRRS | soluble
2 | AIAYTFDTTDHKSPCCNFQWYIFRKQGESRIITCELFGVIVSLENRWDWLEFMIDDSLQLTAFRCPKRDKLGMETLLQLGDVAQVTGNWKLSNGAFLNATKIAIHNNPDVECKYWLQQIQKYKSKVCELEIPSDWIRRQQRAHNLKTDAVLSFSAQVSTAAATCWKLWKKHFNQGGKISLQRLWEVIQRENCPKMQELSSCRRNQIVQLLIHLGYLIPLSKEPETYVLLIDDILDKQVMQIFNQNIASKTLSLREVAYRLEEYFHVEEISLERVEESILRLAYKEKVEQV | soluble
3 | AIIWRRAANLVLLDETGRRVDDLAFRSERADLAVIAGEGAERAVPEALEILSAARPILNRVRGLVRMGERRWDIVLDRGQRVLLPVEDPVAAVERMIALDEAEDLLDRDVISVDLR | not soluble
4 | AKIIFIEHNGTRHEVEAKPGLTVMEAARDNGVPGIDADCGGACACSTCHAYVDPAWVDKLPKALPTETDMIDFAYEPNPATSRLTCQIKVTSLLDGLVVHLPEKQI | soluble
5 | AKKLKKEYLDWYNQILEFSNLSNNSVKIDTPFKDNSLDNLKIYALYDQSRDMITLTDDGYTIFGLENNGVSINKFKKRKKIFEEHLSAYGIKYNDKTHEIFVQTNFKNFNKSKHNLLQCLIFVNDMYLLSNPKSQNIFTEDVANKLDEHNIYYGRDIPIIGSSGVVHNFDFFISAKKNQKEKFINVFSNPNNSMIIKSKITDAMQAKKIKRHRQNEFIFILNDSKKEINEHNKNLLHENYISTIDYSELDEKIGLL | not soluble
6 | AKLGAVYTEGGFVEGVNKKLGLLGDSVDIFKGIPFAAPTKALENPQPHPGWQGTLKAKNFKKRCLQATITQDSTYGDEDCLYLNIWVPQGRKQVSRDLPVMIWIYGGAFLMGSGHGANFLNNYLYDGEEIATRGNVIVVTFNYRVGPLGFLSTGDANLPGNYGLRDQHMAIAWVKRNIAAFGGDPDNITLFGESAGGASVSLQTLSPYNKGLIRRAISQSGVALSPWVIQKNPLFWAKKVAEKVGCPVGDAARMAQCLKVTDPRALTLAYKVPLAGLEYPMLHYVGFVPVIDGDFIPDDPINLYANAADIDYIAGTNNMDGHIFASIDMPAINKGNKKVTEEDFYKLVSEFTITKGLRGAKTTFDVYTESWAQDPSQENKKKTVVDFETDVLFLVPTEIALAQHRANAKSAKTYAYLFSHPSRMPVYPKWVGADHADDIQYVFGKPFATPTGYRPQDRTVSKAMIAYWTNFAKTGDPNMGDSAVPTHWEPYTTENSGYLEITKKMGSSSMKRSLRTNFLRYWTLTYLALPTVT | soluble
7 | AKTKAAVSMEGFSWGNYINSNSFIAAPVTCFKHAPMGTCWGDISENVRVEVPNTDCSLPTKVFWIAGIVKLAGYNALLRYEGFENDSGLDFWCNICGSDIHPVGWCAASGKPLVPPRTIQHKYTNWKAFLVKRLTGAKTLPPDFSQKVSESMQYPFKPCMRVEVVDKRHLCRTRVAVVESVIGGRLRLVYEESEDRTDDFWCHMHSPLIHHIGWSRSIGHRFKRSDITKKQDGHFDTPPHLFAKVKEVDQSGEWFKEGMKLEAIDPLNLSTICVATIRKVLADGFLMIGIDGSEAADGSDWFCYHATSPSIFPVGFCEINMIELTPPRGYTKLPFKWFDYLRETGSIAAPVKLFNKDVPNHGFRVGMKLEAVDLMEPRLICVATVTRIIHRLLRIHFDGWEEEYDQWVDCESPDLYPVGWCQLTGYQLQPPASQSSR | soluble
8 | ALGAPDGVTQGASLSRSIQPLLDAHPGKTGLHVLEKGEESLLARAWLADHATETIDVQYFIWSTDNIGILASEALLRAAERGVRVRVLVDDLLIDAPPESLLALARHPRIDIRIYNPTMTVGTSKVKRLGNVVTGFRSVNQRMHDKTALFDGVVGITGGRNMADEYYDYDQEYTFRDRDILMLGPAVAEAEASFARFWESPLAVPVEKLLKKGMKKMT | not soluble
9 | AMATAPRPLREQYLHFQPISTRWHDNDIYGHVNNVTYYAFFDTAVNTYLIERGGLDIQGGEVIGLVVSSSCDYFAPVAFPQRIEMGLRVARLGNSSVQYELALFLEGQREACAAGRFVHVFVERRSSRPVAIPQELRDALAALQSSAQ | soluble
10 | ANVKLLLPYILKWEGGFVHDPADAGGATNKGVTIATWKRVGYDKDGDGDIDVEDLKLLTDDDVLNRVLKPFYWDRWKADLIESQKVANILVDWVWGSGKYGIVIPQRILGVQADGIVGNKTLQAVNSADPDELFESIFDARREFLEDITARSIKKYEDSIGRKATERELLRHTNKRFLRGWLNRLEDI | not soluble
11 | APGAGPGVRRRQRSLEEIPRLGQLRFFFQLFVQGYALQLHQLQVLYKAKYGPMWMSYLGPQMHVNLASAPLLEQVMRQEGKYPVRNDMELWKEHRDQHDLTYGPFTTEGHHWYQLRQALNQRLLKPAEAALYTDAFNEVIDDFMTRLDQLRAESASGNQVSDMAQLFYYFALEAICYILFEKRIGCLQRSIPEDTVTFVRSIGLMFQNSLYATFLPKWTRPVLPFWKRYLDGWNAIFSFGKKLIDEKLEDMEAQLQAAGPDGIQVSGYLHFLLASGQLSPREAMGSLPELLMAGVDTTSNTLTWALYHLSKDPEIQEALHEEVVGVVPAGQVPQHKDFAHMPLLKAVLKETLRLYPVVPTNSRIIEKEIEVDGFLFPKNTQFVFCHYVVSRDPTAFSEPESFQPHRWLRNSQPATPRIQHPFGSVPFGYGVRACLGRRIAELEMQLLLARLIQKYKVVLAPETGELKSVARIVLVPNKKVGLQFLQRQC | not soluble
12 | APVNWGPGETNDSTTVEPVLDGPYQPTTFNPPVDYWMLLAPTAAGVVVEGTNNTDRWLATILVEPNVTSETRSYTLFGTQEQITIANASQTQWKFIDVVKTTQNGSYSQYGPLQSTPKLYAVMKHNGKIYTYNGETPNVTTKYYSTTNYDSVNMTAFCDFYIIPREEESTCTEYINNGLPPIQNTR | soluble
13 | AQQGVFTLPARINFGVTVLVNSAATQHVEIFVDNEPRAAFSGVGTGDNNLGTKVINSGSGNVRVQITANGRQSDLVSSQLVLANKLNLAVVGSEDGTDMDYNDSIVILNWPLG | soluble
14 | ASCETTVTSGDTMTYSTRSISVPASCAEFTVNFEHKGHMPKTGMGHNWVLAKSADVGDVAKEGAHAGADNNFVTPGDKRVIAFTPIIGGGEKTSVKFKVSALSKDEAYTYFCSYPGHFSMMRGTLKLEE | soluble
15 | ASIPSSASVQLDSYNYDGSTFSGKIYVKNIAYSKKVTVVYADGSDNWNNNGNIIAASFSGPISGSNYEYWTFSASVKGIKEFYIKYEVSGKTYYDNNNSANYQVST | soluble
16 | ATQSPGDSRRLSIQRAIQSLVHAAQCRNANCSLPSCQKMKRVVQHTKGCKRKTNGGCPICKQLIALAAYHAKHCQENKCPVPFCLNIKQKLRQQQLQHRLQQAQMLRRRMASMQ | soluble
17 | ATRSPGVVISDDEPGYDLDLFCIPNHYAEDLERVFIPHGLIMDRTERLARDVMKEMGGHHIVALCVLKGGYKFFADLLDYIKALNRNSDRSIPMTVDFIRLKSYCNDQSTGDIKVIGGDDLSTLTGKNVLIVEDIIDTGKTMQTLLSLVRQYNPKMVKVASLLVKRTPRSVGYKPDFVGFEIPDKFVVGYALDYNEYFRDLNHVCVISETGKAKYKA | soluble
18 | ATVKFKYKGEEKEVDISKIKKVWRVGKMISFTYDEGGGKTGRGAVSEKDAPKELLQMLEKQKK | soluble
19 | AVPSPPPASPRSQYNFIADVVEKTAPAVVYIEILDRHPFLGREVPISNGSGFVVAADGLIVTNAHVVADRRRVRVRLLSGDTYEAVVTAVDPVADIATLRIQTKEPLPTLPLGRSADVRQGEFVVAMGSPFALQNTITSGIVSSAQRPARDLGLPQTNVEYIQTDAAIDFGNAGGPLVNLDGEVIGVNTMKVTAGISFAIPSDRLREFLHRGEKKNSSSGISGSQRRYIGVMMLTLSPSILAELQLREPSFPDVQHGVLIHKVILGSPAHRAGLRPGDVILAIGEQMVQNAEDVYEAVRTQSQLAVQIRRGRETLTLYVTPEVTE | soluble
20 | AVSLDRTRAVFDGSEKSMTLDISNDNKQLPYLAQAWIENENQEKIITGPVIATPPVQRLEPGAKSMVRLSTTPDISKLPQDRESLFYFNLREIPPRSEKANVLQIALQTKIKLFYRPAAIKTRPNEVWQDQLILNKVSGGYRIENPTPYYVTVIGLGGSEKQAEEGEFETVMLSPRSEQTVKSANYNTPYLSYINDYGGRPVLSFICNGSRCSVKKEKHHHHHH | soluble
21 | AYQLYRNTTLGNSLQESLDELIQSQQITPQLALQVLLQFDKAINAALAQRVRNRVNFRGSLNTYRFCDNVWTFVLNDVEFREVTELIKVDKVKIVACDGKNTGSNTTE | soluble
22 | CDQFVTDALKTFENTYLNDHLPHDIHKNVMRMVNHEVSSFGVVTSAEDSYLGAVDENTLEQATWSFLKDLKRITDSDLKGELFIKELLWMLRHQKDIFNNLARQFQKEVLCPNKCGVMSQTLIWCLKCEKQLHICRKSLDCGERHIEVHRSEDLVLDCLLS | not soluble
23 | DADAEFDIVIGNIEDIIMEDEFQHLQQSFMEKYYLEFDDSEENKLSYTPIFNEYIEILEKHLEQQLVERIPGFNMDAFTHSLKQHKDEVSGDILDMLLTFTDFMAFKEMFTDYRAEKEGRG | soluble
24 | DAVELFKKANAMLDEDEDERVDEAALRQLTEMGFPENRATKALQLNHMSVPQAMEWLIEHAEDPTIDTPL | soluble
25 | DAYIGVLIDDLVTKGTNEPYRLLTSRAEYRLLLRHDNADLRLTEIGHRIGLISDERYAAFEKKKAAIEAEKKRLHSVIIKPSPENQEYIRSLGGSELKDGVRGTDLMKRPEMNYETVTKLAPPEVPVPQDVAEQVEIQVKYEGYIEKSLQQVEKLKKMENKKIPDRIDYDAIKGIATEARQKLKNVRPLSVAQASRISGVNPADISILLVYLE | not soluble
26 | DDPQRVTWPTNAGTIQQALKRGYVVVAAGIRGRTTVDKSGQRVGQAPAFIVDMKAAIRYVKYNQGRLPGDTNRIITNGTSAGGATSALAGASGNSAYFEPALTALGAAPATDDIFAVSAYCPIHNLEHADMAYEWQFNGINDWHRYQPVAGTTKNGRPKFEPVSGQLTVEEQALSLALKAQFSTYLNQLKLTASDGTHLTLNEAGMGSFRDVVRQLLISSAQTAFDQGTDIHKYAGFVVTGNQVTDLDLSAYLKSLTRMKAVPAFDQLDLTSPENNLFGDATAKAKHFTALAQTRSTVTAQLADAELIQAINPLSYLTTTSSRVAKHWRIRHGAADRDTSFAIPIILAIMLENHGYGIDFALPWDIPHSGD | not soluble
27 | DGRITGMIQVAIDVTEQVVARKKLEESESRFRALVNASSDVVYRMNADWTVMRELEGRDFLTPAGTAMADWVETYTYREDRALVKATAAAAIEGKRIFELEHRVLKADGTIGWTFSRAIPILDEQ | not soluble
